Test results taken from the supplement of paper PMC11246515.
± gives the standard deviation of the averaged measurements.

Experiment: total protein half-life in vivo (active degradation + dilution); higher = more stable protein
[1] = E. coli NCM3722 delta-clpP delta-lon delta-hslV, growth: N-lim chemostat, doubling time 6 h
[2] = wild type E. coli NCM3722, growth: C-lim chemostat, doubling time 3 h
[3] = wild type E. coli NCM3722, growth: N-lim chemostat, doubling time 6 h
[4] = E. coli NCM3722 delta-clpP, growth: N-lim chemostat, doubling time 6 h
[5] = E. coli NCM3722 delta-hslV, growth: N-lim chemostat, doubling time 6 h
[6] = E. coli NCM3722 delta-lon, growth: N-lim chemostat, doubling time 6 h
[7] = E. coli NCM3722 delta-smpB, growth: N-lim chemostat, doubling time 6 h
[8] = wild type E. coli NCM3722, growth: C-lim chemostat, doubling time 6 h
[9] = wild type E. coli NCM3722, growth: C-lim chemostat, doubling time 12 h
[10] = wild type E. coli NCM3722, growth: N-lim chemostat, doubling time 12 h
[11] = wild type E. coli NCM3722, growth: P-lim chemostat, doubling time 6 h
[12] = wild type E. coli NCM3722, growth: P-lim chemostat, doubling time 12 h

Sequence	total protein half-life in vivo [1]	total protein half-life in vivo [2]	total protein half-life in vivo [3]	total protein half-life in vivo [4]	total protein half-life in vivo [5]	total protein half-life in vivo [6]	total protein half-life in vivo [7]	total protein half-life in vivo [8]	total protein half-life in vivo [9]	total protein half-life in vivo [10]	total protein half-life in vivo [11]	total protein half-life in vivo [12]
MAIKLEIKNLYKIFGEHPQRAFKYIEQGLSKEQILEKTGLSLGVKDASLAIEEGEIFVIMGLSGSGKSTMVRLLNRLIEPTRGQVLIDGVDIAKISDAELREVRRKKIAMVFQSFALMPHMTVLDNTAFGMELAGINAEERREKALDALRQVGLENYAHSYPDELSGGMRQRVGLARALAINPDILLMDEAFSALDPLIRTEMQDELVKLQAKHQRTIVFISHDLDEAMRIGDRIAIMQNGEVVQVGTPDEILNNPANDYVRTFFRGVDISQVFSAKDIARRTPNGLIRKTPGFGPRSALKLLQDEDREYGYVIERGNKFVGAVSIDSLKTALTQQQGLDAALIDAPLAVDAQTPLSELLSHVGQAPCAVPVVDEDQQYVGIISKGMLLRALDREGVNNG	5.58 ± 1.6 h	1.16 h	5.28 h	–	–	–	–	–	–	–	–	–
MAIKLIAIDMDGTLLLPDHTISPAVKNAIAAARARGVNVVLTTGRPYAGVHNYLKELHMEQPGDYCITYNGALVQKAADGSTVAQTALSYDDYRFLEKLSREVGSHFHALDRTTLYTANRDISYYTVHESFVATIPLVFCEAEKMDPNTQFLKVMMIDEPAILDQAIARIPQEVKEKYTVLKSAPYFLEILDKRVNKGTGVKSLADVLGIKPEEIMAIGDQENDIAMIEYAGVGVAMDNAIPSVKEVANFVTKSNLEDGVAFAIEKYVLN [P0A8Y5]	4 ± 0.43 h	3.08 ± 0.22 h	3.52 ± 0.2 h	3.61 ± 0.23 h	3.55 ± 0.38 h	3.69 ± 0.1 h	3.408 ± 0.021 h	5.71 ± 0.32 h	9.92 ± 0.27 h	5.28 ± 0.29 h	5.06 ± 0.13 h	11.4 ± 0.92 h
MAIPAFGLGTFRLKDDVVISSVITALELGYRAIDTAQIYDNEAAVGQAIAESGVPRHELYITTKIWIENLSKDKLIPSLKESLQKLRTDYVDLTLIHWPSPNDEVSVEEFMQALLEAKKQGLTREIGISNFTIPLMEKAIAAVGAENIATNQIELSPYLQNRKVVAWAKQHGIHITSYMTLAYGKALKDEVIARIAAKHNATPAQVILAWAMGEGYSVIPSSTKRKNLESNLKAQNLQLDAEDKKAIAALDCNDRLVSPEGLAPEWD	4.33 ± 0.17 h	3.05 ± 0.099 h	4.615 ± 0.044 h	4.57 ± 0.071 h	4.59 ± 0.27 h	4.76 ± 0.34 h	4.78 ± 0.36 h	5.39 ± 0.67 h	10.7 ± 6.2 h	8.62 ± 3.3 h	5.21 ± 0.41 h	11.4 ± 0.5 h
MAIPKLQAYALPESHDIPQNKVDWAFEPQRAALLIHDMQDYFVSFWGENCPMMEQVIANIAALRDYCKQHNIPVYYTAQPKEQSDEDRALLNDMWGPGLTRSPEQQKVVDRLTPDADDTVLVKWRYSAFHRSPLEQMLKESGRNQLIITGVYAHIGCMTTATDAFMRDIKPFMVADALADFSRDEHLMSLKYVAGRSGRVVMTEELLPAPIPASKAALREVILPLLDESDEPFDDDNLIDYGLDSVRMMALAARWRKVHGDIDFVMLAKNPTIDAWWKLLSREVK [P0ADI4]	6.06 ± 2.3 h	2.18 ± 0.18 h	–	2.48 h	1.47 h	–	1.73 ± 0.48 h	3.32 ± 0.47 h	5.74 ± 0.72 h	4.49 h	–	5.51 h
MAIRKRFIAGAKCPACQAQDSMAMWRENNIDIVECVKCGHQMREADKEARDHVRKDEQVIGIFHPD [P0ADW8]	4.91 ± 0.73 h	1.8 ± 0.47 h	–	3.52 ± 0.46 h	–	–	2.16 ± 0.17 h	4.08 ± 1.4 h	2.51 h	2.52 h	3.48 h	7.36 ± 1.6 h
MAITGIFFGSDTGNTENIAKMIQKQLGKDVADVHDIAKSSKEDLEAYDILLLGIPTWYYGEAQCDWDDFFPTLEEIDFNGKLVALFGCGDQEDYAEYFCDALGTIRDIIEPRGATIVGHWPTAGYHFEASKGLADDDHFVGLAIDEDRQPELTAERVEKWVKQISEELHLDEILNA	5.32 ± 1.2 h	–	4.71 ± 0.14 h	5.07 ± 0.65 h	4.45 ± 0.27 h	4.59 ± 0.44 h	4.64 ± 0.75 h	5.31 ± 0.73 h	7.02 ± 3 h	8.16 ± 0.92 h	6.33 ± 0.46 h	–
MAKEDNIEMQGTVLETLPNTMFRVELENGHVVTAHISGKMRKNYIRILTGDKVTVELTPYDLSKGRIVFRSR	5.28 ± 0.3 h	–	4.58 h	4.92 ± 1.1 h	4.49 ± 0.57 h	4.94 ± 0.23 h	5.4 ± 0.28 h	5.34 ± 0.62 h	8.41 ± 0.61 h	8.98 ± 0.12 h	4.93 ± 1.6 h	9.85 ± 0.75 h
MAKEFGRPQRVAQEMQKEIALILQREIKDPRLGMMTTVSGVEMSRDLAYAKVYVTFLNDKDEDAVKAGIKALQEASGFIRSLLGKAMRLRIVPELTFFYDNSLVEGMRMSNLVTSVVKHDEERRVNPDDSKED [P0A7G2]	–	2.87 ± 0.079 h	4.6 ± 0.22 h	4.7644 ± 0.0036 h	4.43 ± 0.063 h	5.76 ± 0.31 h	4.56 ± 0.23 h	5.38 ± 0.84 h	10.3 ± 0.93 h	7.76 ± 0.5 h	4.66 ± 0.12 h	8.771 ± 0.013 h
MAKEKKRGFFSWLGFGQKEQTPEKETEVQNEQPVVEEIVQAQEPVKASEQAVEEQPQAHTEAEAETFAADVVEVTEQVAESEKAQPEAEVVAQPEPVVEETPEPVAIEREELPLPEDVNAEAVSPEEWQAEAETVEIVEAAEEEAAKEEITDEELETALAAEAAEEAVMVVPPAEEEQPVEEIAQEQEKPTKEGFFARLKRSLLKTKENLGSGFISLFRGKKIDDDLFEELEEQLLIADVGVETTRKIITNLTEGASRKQLRDAEALYGLLKEEMGEILAKVDEPLNVEGKAPFVILMVGVNGVGKTTTIGKLARQFEQQGKSVMLAAGDTFRAAAVEQLQVWGQRNNIPVIAQHTGADSASVIFDAIQAAKARNIDVLIADTAGRLQNKSHLMEELKKIVRVMKKLDVEAPHEVMLTIDASTGQNAVSQAKLFHEAVGLTGITLTKLDGTAKGGVIFSVADQFGIPIRYIGVGERIEDLRPFKADDFIEALFARED	5.949 ± 0.013 h	3.038 ± 0.019 h	5.94 ± 0.28 h	6.16 ± 0.62 h	6.29 ± 0.82 h	5.53 ± 0.3 h	5.61 ± 0.034 h	5.835 ± 0.012 h	11.1 ± 1.8 h	10.7 ± 0.25 h	5.64 ± 0.21 h	11.92 ± 0.0035 h
